The results in this text go back to publication PMC11094088, “Molecular mechanism of Oxr1p mediated disassembly of yeast V-ATPase” (EMBO Reports, 2024).

The target in experiment [1] is recombinant N-terminally 7×His tagged biotinylated Oxr1p (bio-Oxr1p) (yeast) (UniProt Q08952). The experiment can be described thus: BLI; bio-Oxr1p (10 µg/ml) immobilised on streptavidin biosensors, V1ΔH^(ΔOxr1) with or without recombinant subunit C in solution; 20 mM Tris-HCl pH 7.0, 0.5 mM EDTA, β-mercaptoethanol, 5.0 mg/ml BSA; 23 °C; global fitting. In general terms: In BLI a coated tip is dipped into the sample, and binding shifts an interference pattern.

The target of experiment [2] is V1ΔH^(ΔOxr1) in the presence of recombinant subunit C (yeast (endogenous) | yeast) (UniProt P16140). The experiment can be described thus: BLI; α-mouse IgG Fc capture biosensors loaded with α-MBP antibody, then MBP-HWT or MBP-H_(chim) (5 µg/ml); 40 nM V1ΔH in solution with buffer, Oxr1p (equimolar), subunit C (twofold molar excess) or Oxr1p + subunit C; TBSE plus 0.5 mg/ml BSA; 23 °C.

In experiment [3] the target is T1, V1 subunit B (the B subunit of the open catalytic site), in the purified V-ATPase (yeast (endogenous), UniProt P16140 1-517).
T1 construct: V1 subunit B, yeast; source: endogenous, part of the purified yeast V-ATPase in lipid nanodiscs
T1 sequence (P16140 whole entry): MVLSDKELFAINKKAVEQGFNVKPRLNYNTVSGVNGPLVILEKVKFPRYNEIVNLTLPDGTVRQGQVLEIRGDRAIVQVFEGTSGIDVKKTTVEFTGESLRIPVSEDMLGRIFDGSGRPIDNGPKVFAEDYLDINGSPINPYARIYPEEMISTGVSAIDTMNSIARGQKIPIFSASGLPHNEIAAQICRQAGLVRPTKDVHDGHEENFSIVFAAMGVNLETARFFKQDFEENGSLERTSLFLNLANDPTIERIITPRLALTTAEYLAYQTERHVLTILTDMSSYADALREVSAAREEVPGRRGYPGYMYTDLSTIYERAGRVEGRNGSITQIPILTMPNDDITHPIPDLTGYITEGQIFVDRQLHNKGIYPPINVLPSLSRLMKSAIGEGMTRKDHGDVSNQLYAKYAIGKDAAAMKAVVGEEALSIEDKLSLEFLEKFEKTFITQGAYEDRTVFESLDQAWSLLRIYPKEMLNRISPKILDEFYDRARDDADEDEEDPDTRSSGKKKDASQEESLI
In words: cryo-EM structure; V-ATPase in lipid nanodiscs (~1-2 mg/ml) vitrified with a twofold molar excess of Oxr1p, no nucleotide; 3-D classes at ~8.2 Å; Oxr1p density in the rotary state 1 class (~31% of particles). The note with it: both partners purified.

Experiment [4] has as its target wild-type yeast V-ATPase reconstituted into lipid nanodiscs (V1VoND) (yeast (endogenous) | yeast) (UniProt P16140).
The target is the same in experiment [5]. This is another data set of the same source.

Turning to “V1ΔH^(ΔOxr1) in the presence of recombinant subunit C (from UniProt P16140 1-517; P32610 1-256; P22203 1-233; P39111 1-118; P48836 1-114; P31412 1-392) (complex)”, the Kd in experiment [1] worked out at 7 nM.
Same read-out and setting: next, “V1ΔH, V1 subcomplex without subunit H (FLAG-tagged subunit G), from the oxr1Δvma13Δ background (from UniProt P16140 1-517; P32610 1-256; P22203 1-233; P39111 1-118; P48836 1-114)”: 67 nM.

B1: Oxidation Resistance protein 1 (Oxr1p), recombinant (natural protein, yeast, UniProt Q08952 1-273, looked up)
chain: MFGVKDAIFKIKRSIAGTDSSDSTAYTTASESSPQLKDSHNPFRNKTTSERTIVEEGSLPPVRLNGYLPSTKNKLLTPEMCDEIRTLMPTRIQLYTEWNLLYSLEQHGSSLHSLYSNVAPDSKEFRRVGYVLVIKDRKNGIFGAYSNEAFHPNEHRQYTGNGECFLWKLDKVPDVNISEKEESEQEGKEGKEEGDKEERWRFSGYPYTGVNEFAIYCTSEFLSMGAGDGHYGLLCDDGLLHGVSNPCQTYGNEVLSKEGKKFSIVALEVWRVG
notes: Oxr1p, yeast TLDc domain protein; construct as described in Khan et al, 2022; also called recombinant Oxr1p; source: E. coli BL21DE3, purified (Ni-NTA, Superdex-75 SEC); not shown: 7xHis, N-terminal, kept
B1: in experiment [2], the percent reduction of V1ΔH binding to immobilised H (chim) (subunit C and Oxr1p, against Oxr1p only) was determined as 25%; the percent reduction of V1ΔH binding to immobilised wild-type H (subunit C and Oxr1p, against Oxr1p only) is 60%. Further, the binding result in experiment [3] is listed as “binds”. In experiment [4], this molecule gave an ATPase activity of purified V-ATPase in nanodiscs left after incubation with a twofold molar excess of Oxr1p, 30 min to 16 h, relative to the starting activity of 70%. The loss of ATPase activity of purified V-ATPase after 30 min with a twofold molar excess of Oxr1p alone in experiment [5] stood at 30%.

Broadly, the Kd is the concentration at which binding is half-saturated.
